Assay results from patent US8178319B2, “Peptides and uses thereof” (priority 2008, dated 2012).

B1: Mono-F2: Recombinant His-tagged monovalent fucose-binding fragment of Aleuria aurantia lectin, site 2 (AAL aa 51-161) (protein, listed as Aleuria aurantia)
chain: SQNVIGEAKLFSPLAAVTWKSAQGIQIRVYCVNKDNILSEFVYDGSKWITGQLGSVGVKVGSNSKLAALQWGGSESAPPNIRVYYQKSNGSGSSIHEYVWSGKWTAGASFG
modifications: His tag
B2: Mono-F2-T: Mono-F2 pre-treated with thrombin protease to remove the His-tag (protein, listed as Aleuria aurantia)
chain: B1 chain
modifications: His-tag removed by thrombin
B3: rAAL: Recombinant full length His-tagged Aleuria aurantia lectin (protein, UniProt P18891 2-313, looked up)
Fucose-specific lectin: PTEFLYTSKIAAISWAATGGRQQRVYFQDLNGKIREAQRGGDNPWTGGSSQNVIGEAKLFSPLAAVTWKSAQGIQIRVYCVNKDNILSEFVYDGSKWITGQLGSVGVKVGSNSKLAALQWGGSESAPPNIRVYYQKSNGSGSSIHEYVWSGKWTAGASFGSTVPGTGIGATAIGPGRLRIYYQATDNKIREHCWDSNSWYVGGFSASASAGVSIAAISWGSTPNIRVYWQKGREELYEAAYGGSWNTPGQIKDASRPTPSLPDTFIAANSSGNIDISVFFQASGVSLQQWQWISGKGWSIGAVVPTGTPAGW
modifications: His-tag
notes: Recombinant full length His-tagged Aleuria aurantia lectin

Key:
[1] = system: wheat-germ agglutinin isolated B-domain (WGA-B); details: monovalent form of wheat-germ agglutinin (B-domain); Espinosa et al, 2000; cited from earlier work
[2] = ELISA binding of biotinylated lectin to oligosaccharide glycoconjugates; details: for ELISA binding to non-fucosylated oligosaccharide LNT: LNT-BSA coated wells, absorbance 405 nm; for ELISA binding specificity towards fucosylated oligosaccharides: LNnF I, LNF II, LNF III, B-tri, SLex, SLea conjugates, absorbance 405 nm (FIG. 7)
Procedure: Purified Mono-F2 (SEQ ID NO: 4) and full length rAAL were biotinylated using IMMUNOPROBE™ Biotinylation Kit (Sigma-Aldrich, Stockholm, Sweden) according to the manufacturer's instruction. The biotin/protein ratio was determined to 1.1 biotin moieties per protein molecule for both Mono-F2 (SEQ ID NO: 4) and rAAL. Microtiter plates (Nunc MaxiSorp™ eBioscience, San Diego, CA) were coated with 0.2 μg of LNnF I-BSA, LNF II-BSA, LNF III-HSA, LNT-BSA; 0.1 μg of B-tri-HSA, SLex-HSA and SLea-HSA in 100 μL coating buffer (15 mM Na2CO3, 35 mM NaHCO3, 0.02% NaN3, pH 9.6). Then 100 μL of biotinylated Mono-F2 (SEQ ID NO: 4) or full length rAAL was added to the wells. After addition of ExtrAvidin (E-2632 Sigma-Aldrich, Stockholm, Sweden) and phosphatase substrate (Sigma 104®, Sigma-Aldrich, Stockholm, Sweden) the amount of Mono-F2 (SEQ ID NO: 4) or full length AAL binding to each well were measured at 405 nm using a VERSAmax microplate reader (Molecular Devices Corporation, Sunnyvale, CA).
To analyze whether the His-tag on Mono-F2 (SEQ ID NO: 4) affected the fucose binding the ELISA analysis was also performed using Mono-F2 (SEQ ID NO: 4) pre-treated with thrombin protease to remove the His-tag. Biotin labelled Mono-F2 (SEQ ID NO: 4) (50μg) in PBS was incubated with 2 units of thrombin protease (Amersham Biosciences, Uppsala, Sweden) for 2 hours at room temperature.

[3] = Oligosaccharide affinity chromatography on silica column with immobilized Mono-F2; type: binding, human
Procedure: FIG. 5 - chromatograms of some fucosylated human milk oligosaccharides (LNnF I, LNF II and LNF III) and a non-fucosylated control (LNT) on a silica column with immobilized Mono-F2 (SEQ ID NO: 4).
Mono-F2 (SEQ ID NO: 4) was immobilized on silica particles (5μM, 300 Å) and packed in an affinity column (50×0.32 mm) and chromatography of a number of oligosaccharides were examined. […] Elutions of oligosaccharides were detected by UV absorbance at 210 nm.

[4] = system: human type 0 erythrocytes; experiment: Hemagglutination activity with human type 0 erythrocytes; type: cell-based; details: 2% human type 0 erythrocytes in PBS, room temperature, 1 h; for minimum lectin concentration that gave hemagglutination (molar): approximate conversion of μg/ml
Procedure: The hemagglutination activity of full length rAAL and Mono-F2 (SEQ ID NO: 4) was determined by serial dilutions of the lectins in PBS and mixing with an equal volume (50μL) of 2% human type 0erythrocytes suspended in PBS. After incubation at room temperature for 1h the minimum lectin concentration that gave a positive reaction was determined.

[5] = Affinity chromatography on fucose-agarose column; type: binding
Procedure: Purified Mono-F2 (SEQ ID NO: 4) was analyzed on a 1 mL fucose-agarose column (Sigma-Aldrich, Stockholm, Sweden). The column was equilibrated with 20mL PBS. Mono-F2 (SEQ ID NO: 4) was added and the column was incubated for 20 minutes at 4° C. with gentle rocking. After incubation the column was washed with PBS until the absorbance at 280 nm had reached zero. Elution was performed with 4 mL of 0.15 M L-fucose in PBS, 4 mL of 1 M L-fucose in PBS, and lastly with glycine buffer pH 2.5. Fractions (1 mL) were collected with monitoring of absorbance at 280 nm. The fractions were further analysed by SDS-PAGE.

Molecule | ELISA binding to non-fucosylated oligosaccharide LNT [2] | ELISA binding specificity towards fucosylated oligosaccharides [2] | minimum lectin concentration that gave hemagglutination [4] | minimum lectin concentration that gave hemagglutination (molar) [4] | also measured
CC(=O)N[C@H]1[C@H](O[C@H]2[C@H](O)[C@@H](NC(C)=O)C(O)O[C@@H]2CO)O[C@H](CO)[C@@H](O[C@@H]2O[C@H](CO)[C@@H](O)[C@H](O)[C@H]2NC(C)=O)[C@@H]1O (stereo partly drawn) [chitotriose, N,N′, N″-triacetylchitotriose] | – | – | – | – | binding affinity [1]: millimolar range
B1 | only low background binding | binding only non-sialylated oligosaccharide structures with α1-2 or α1-4 linked fucose | > 200 µg/mL | > 14 µM | retention of non-fucosylated LNT on immobilized Mono-F2 column ([3]; LNT (non fucosylated) control): not bound to the column; retention of fucosylated oligosaccharides LNF I, LNF II and LNF III on immobilized Mono-F2 column ([3]; increasing retention times LNF I, LNF II, LNF III, UV 210 nm): retarded on the column; elution from fucose-agarose column with 0.15 M L-fucose ([5]; 4 mL of 0.15 M L-fucose in PBS): could not be eluted; elution from fucose-agarose column with 1 M L-fucose ([5]; 4 mL of 1 M L-fucose in PBS): Very little was eluted; binding to immobilized fucose (conclusion; low-pH buffer needed for full elution) ([5]; glycine buffer pH 2.5 needed for full elution): high affinity binding to fucose
B2 | – | – | – | – | ELISA binding compared with non-treated Mono-F2 ([2]; LNnF I-, LNF II- and LNF III-BSA conjugates, His-tag removed with thrombin (FIG. 8)): identical binding
B3 | only low background binding | bound to all fucosylated oligosaccharides | 2.5 µg/mL | ~0.071 µM | –
